Values quoted from earlier work, collected in US10905736B2, “Ezetimibe-associated ApoA-I mimetic peptides showing enhanced synergism” (The Regents of the University of California, priority 2016, dated 2021).

Conditions: two hours after LDLR-/- mice finished eating WD containing Tg6F; cited from earlier work

Question: For DWLKAFYDKFFEKFKEFF [6F peptide], which “presence of intact peptide in small intestine and plasma” value is on record?
Answer: The value was “found in the small intestine but not in the plasma”.
